The values below come from publication PMC5745067 (Neuron, 2017).

Some results are limits rather than exact numbers.

Sequences and labels used below:
B1: extracellular domain of rat NLGN2 (Val43-His612, containing the site A insert) (domain or fragment, UniProt Q62888-1 43-612, looked up)
chain: VVNTAYGRVRGVRRELNNEILGPVVQFLGVPYATPPLGARRFQPPEAPASWPGVRNATTLPPACPQNLHGALPAIMLPVWFTDNLEAAATYVQNQSEDCLYLNLYVPTEDGPLTKKRDEATLNPPDTDIRDSGKKPVMLFLHGGSYMEGTGNMFDGSVLAAYGNVIVATLNYRLGVLGFLSTGDQAAKGNYGLLDQIQALRWLSENIAHFGGDPERITIFGSGAGASCVNLLILSHHSEGLFQKAIAQSGTAISSWSVNYQPLKYTRLLAAKVGCDREDSTEAVECLRRKSSRELVDQDVQPARYHIAFGPVVDGDVVPDDPEILMQQGEFLNYDMLIGVNQGEGLKFVEDSAESEDGVSASAFDFTVSNFVDNLYGYPEGKDVLRETIKFMYTDWADRDNGEMRRKTLLALFTDHQWVAPAVATAKLHADYQSPVYFYTFYHHCQAEGRPEWADAAHGDELPYVFGVPMVGATDLFPCNFSKNDVMLSAVVMTYWTNFAKTGDPNQPVPQDTKFIHTKPNRFEEVVWSKFNSKEKQYLHIGLKPRVRDNYRANKVAFWLELVPHLHNLH
B2: MDGA1 C4 (Ig1–Ig4; Y22-I433) (domain or fragment, human, UniProt Q8NFP4-1 22-433, looked up)
chain: YAPAQAQIVHAGQACVVKEDNISERVYTIREGDTLMLQCLVTGHPRPQVRWTKTAGSASDKFQETSVFNETLRIERIARTQGGRYYCKAENGVGVPAIKSIRVDVQYLDEPMLTVHQTVSDVRGNFYQEKTVFLRCTVNSNPPARFIWKRGSDTLSHSQDNGVDIYEPLYTQGETKVLKLKNLRPQDYASYTCQVSVRNVCGIPDKAITFRLTNTTAPPALKLSVNETLVVNPGENVTVQCLLTGGDPLPQLQWSHGPGPLPLGALAQGGTLSIPSVQARDSGYYNCTATNNVGNPAKKTVNLLVRSMKNATFQITPDVIKESENIQLGQDLKLSCHVDAVPQEKVTYQWFKNGKPARMSKRLLVTRNDPELPAVTSSLELIDLHFSDYGTYLCMASFPGAPVPDLSVEVNI
modifications: TAMRA label ((5/6)-TAMRA-SE) in the FP assay
B3: MDGA1 C8 (Ig1–Ig2; Y22-T237) (domain or fragment, human, UniProt Q8NFP4-1 22-237, looked up)
chain: YAPAQAQIVHAGQACVVKEDNISERVYTIREGDTLMLQCLVTGHPRPQVRWTKTAGSASDKFQETSVFNETLRIERIARTQGGRYYCKAENGVGVPAIKSIRVDVQYLDEPMLTVHQTVSDVRGNFYQEKTVFLRCTVNSNPPARFIWKRGSDTLSHSQDNGVDIYEPLYTQGETKVLKLKNLRPQDYASYTCQVSVRNVCGIPDKAITFRLTNTT
modifications: TAMRA label ((5/6)-TAMRA-SE) in the FP assays; no label told for the crystals
B4: MDGA1 C2 (Ig1–Ig3; Y22-K330) (domain or fragment, human, UniProt Q8NFP4-1 22-330, looked up)
chain: YAPAQAQIVHAGQACVVKEDNISERVYTIREGDTLMLQCLVTGHPRPQVRWTKTAGSASDKFQETSVFNETLRIERIARTQGGRYYCKAENGVGVPAIKSIRVDVQYLDEPMLTVHQTVSDVRGNFYQEKTVFLRCTVNSNPPARFIWKRGSDTLSHSQDNGVDIYEPLYTQGETKVLKLKNLRPQDYASYTCQVSVRNVCGIPDKAITFRLTNTTAPPALKLSVNETLVVNPGENVTVQCLLTGGDPLPQLQWSHGPGPLPLGALAQGGTLSIPSVQARDSGYYNCTATNNVGNPAKKTVNLLVRSMK
modifications: TAMRA label ((5/6)-TAMRA-SE) in the FP assay

Series [1] concerns the target NLGN2-Fc (UniProt Q8NFZ4). As to the kind of experiment: cell-surface binding assay. The note with it: cited from earlier work.
Series [2] has as its target neurexin 1β (UniProt P58400). As to the kind of experiment: SPR. The note with it: cited from earlier work.
Series [3] concerns the molecule itself. As to the kind of experiment: crystal structure.
The target in series [4] is B1. As to the kind of experiment: fluorescence polarisation.

NLGN2-Fc, sequence (Q8NFZ4 15-677): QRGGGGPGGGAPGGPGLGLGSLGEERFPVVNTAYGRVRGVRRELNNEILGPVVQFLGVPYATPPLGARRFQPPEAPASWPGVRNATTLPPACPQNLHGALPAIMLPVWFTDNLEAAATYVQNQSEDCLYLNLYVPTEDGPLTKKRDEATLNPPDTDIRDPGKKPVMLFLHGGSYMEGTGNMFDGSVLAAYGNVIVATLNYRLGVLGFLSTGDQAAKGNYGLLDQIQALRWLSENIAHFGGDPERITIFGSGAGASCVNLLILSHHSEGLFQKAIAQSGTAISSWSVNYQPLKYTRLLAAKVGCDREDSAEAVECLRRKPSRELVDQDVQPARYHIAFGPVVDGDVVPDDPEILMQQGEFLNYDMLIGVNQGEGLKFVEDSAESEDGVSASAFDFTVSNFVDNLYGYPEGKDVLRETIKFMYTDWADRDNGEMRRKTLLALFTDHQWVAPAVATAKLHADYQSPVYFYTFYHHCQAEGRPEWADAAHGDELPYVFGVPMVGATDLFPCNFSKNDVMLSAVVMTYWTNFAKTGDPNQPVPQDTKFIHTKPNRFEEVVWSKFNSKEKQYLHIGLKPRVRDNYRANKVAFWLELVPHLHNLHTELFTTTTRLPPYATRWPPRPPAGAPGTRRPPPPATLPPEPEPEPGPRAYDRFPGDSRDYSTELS
neurexin 1β, sequence (P58400 51-396): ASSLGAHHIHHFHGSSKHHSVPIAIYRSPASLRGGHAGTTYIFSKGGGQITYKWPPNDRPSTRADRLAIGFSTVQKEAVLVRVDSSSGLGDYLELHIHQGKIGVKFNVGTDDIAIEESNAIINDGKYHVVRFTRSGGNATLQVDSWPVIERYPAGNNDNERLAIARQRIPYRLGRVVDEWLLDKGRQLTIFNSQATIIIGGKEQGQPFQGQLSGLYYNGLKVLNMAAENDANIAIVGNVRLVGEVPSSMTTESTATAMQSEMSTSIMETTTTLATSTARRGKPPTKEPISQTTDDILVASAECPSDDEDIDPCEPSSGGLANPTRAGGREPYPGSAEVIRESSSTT

Take MDGA1 (from UniProt Q8NFP4): the dissociation constant Kd in series [1] is 7 nM.

As to NLGN1 (from UniProt Q62765), the dissociation constant (Kd) in series [2] was > 10000 nM.

In the case of MDGA2 (from UniProt Q7Z553), in series [1], the Kd is 46 nM.

Regarding B1, the “stoichiometry N” value in series [3] is 2.

B2: the binding result in series [4] is “binds”.

B3 showed a Kd in series [4] of 21 nM.

Turning to B4, in series [4], the binding result was “binds”.
